Experiment [1] deals with T1, iPHF (UniProt P10636-8 2-441, limits assumed).
T1 construct: also called iPHF tau
As to the kind of experiment: BLI (Octet), antibody on biosensor tip, iPHF in solution. As for the experimental part:
Anti-human tau antibodies were assessed for affinity for iPHF by Octet (ForteBio, Menlo Park, CA) analysis. A set of recombinant human IgG1 antibodies were prepared with clone-specific variable domain pairs selected from those presented in Table 1 and human IgG1 constant domains. Candidate antibodies were immobilized on biosensor tips (ForteBio) in kinetic buffer (ForteBio). Biosensor tips were then washed before introduction of a solution of iPHF in kinetic buffer for analysis of association and dissociation with candidate antibodies.
For orientation: BLI is a label-free optical method that tracks binding on a fibre tip over time.

The target in experiment [2] is T2, Tau191-214 phospho-peptide (pS199) (human, phosphoserine at S199 of tau (peptide position 9); SCBio-4PEG label).
T2 construct: also called pS199 peptide
T2 sequence (peptide, as listed by the source): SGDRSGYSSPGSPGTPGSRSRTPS
As to the kind of experiment: BLI.

Experiment [3] deals with T3, AT8 peptide (amino acids 195-215 of tau) (human, phospho-peptide, phosphorylated sites not stated in the example; immobilized on streptavidin tips).
T3 peptide: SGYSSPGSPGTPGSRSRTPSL
As to the kind of experiment: BLI (Octet), phospho-peptide on streptavidin tips. How it is done: Briefly, phospho-peptides were immobilized on streptavidin biosensor tips and the binding ability of each antibody was assessed using an eight-point concentration gradient.

Experiment [4] concerns the target T4, AT270 peptide (pT181; Tau172-186) (human).
T4 peptide: PAKTPPAPK[pT]PPSSG
As to the kind of experiment: one point ELISA. On the technique in general: In an ELISA, binding on a coated surface is turned into a signal by an enzyme label.

The target of experiment [5] is T5, Tau(pS404) peptide (human, phosphoserine at S404 of tau (peptide position 18)).
T5 construct: also called TauS404 peptide; TauS404
T5 peptide: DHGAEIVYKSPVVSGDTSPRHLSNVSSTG
As to the kind of experiment: competitive ELISA on TauS404 peptide, competitor AC04 peptide.

Experiment [6] addresses T6, wild type tau (human, UniProt P10636 2-758).
T6 construct: also called WT
As to the kind of experiment: direct ELISA, wild type tau coated. How it is done:
(§1) A set of recombinant human IgG1 antibodies were prepared with clone-specific variable domain pairs selected from those presented in Table 1 and human IgG1 constant domains. These candidate antibodies were analyzed for binding to ePHF and specificity for ePHF over wild type tau by direct ELISA.
(§2) For direct ePHF and wildtype tau ELISA, plates were first coated with ePHF or wild type tau. Antigen solutions were prepared in PBS and 50 μL were pipetted into each well. Plates were covered and incubated for one hour at 37° C. or overnight at 4° C. Plates were then washed and blocked by addition of 150 μl of blocking buffer to each well and incubated one hour at room temperature. Plates were then washed before addition of serially diluted candidate antibody samples prepared in blocking buffer. Detection of candidate antibody binding was carried out by washing plates and adding a solution of enzyme-labeled secondary antibody in blocking buffer to each well. Secondary antibody binding was detected by addition of substrate and spectrophotometric analysis of resulting reaction product.

Experiment [7] deals with T7, enriched paired helical filament tau protein (ePHF; sarkosyl insoluble tau) (human, UniProt P10636 2-758). As to the kind of experiment: direct ELISA, ePHF coated. As for the experimental part: as §1, §2
T7 sequence (P10636 other isoform, or with tags, fused parts or gaps limits assumed): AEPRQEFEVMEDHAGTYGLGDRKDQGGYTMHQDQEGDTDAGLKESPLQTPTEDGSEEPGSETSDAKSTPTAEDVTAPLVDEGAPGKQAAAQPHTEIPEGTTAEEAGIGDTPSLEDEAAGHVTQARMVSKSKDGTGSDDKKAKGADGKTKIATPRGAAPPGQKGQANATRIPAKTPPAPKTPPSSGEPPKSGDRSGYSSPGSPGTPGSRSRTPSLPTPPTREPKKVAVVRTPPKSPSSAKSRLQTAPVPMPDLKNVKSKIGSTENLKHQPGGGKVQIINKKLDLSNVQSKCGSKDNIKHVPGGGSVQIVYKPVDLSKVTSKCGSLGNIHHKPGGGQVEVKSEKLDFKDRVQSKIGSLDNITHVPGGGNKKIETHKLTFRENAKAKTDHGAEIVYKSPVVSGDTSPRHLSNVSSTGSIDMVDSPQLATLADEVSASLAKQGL
Experiment [8] deals with T7, enriched paired helical filament tau …. As to the kind of experiment: follow up selectivity analysis, ePHF over wild-type tau; method not stated.
Experiment [9] has as its target T1, iPHF. As to the kind of experiment: SPR (Biacore 8K). (SPR reads the build-up and loss of mass on a sensor chip optically.)
For experiment [10], the target named is Tau191-214 phospho-peptide (pT205) (human, phosphothreonine at T205 of tau (peptide position 15); SCBio-4PEG label). As to the kind of experiment: one point ELISA. The text has this: (§3) One-point ELISA was used to determine differential binding based on the individual phosphorylation patterns of each peptide. OD values (450 nm) were collected (as shown in Table 13), where a stronger positive signal is shown as a higher OD value, which is indicative of increased binding.

Experiment [11] has as its target Tau191-214 phospho-peptide (pS202) (human, phosphoserine at S202 of tau (peptide position 12); SCBio-4PEG label). As to the kind of experiment: one point ELISA.
Text: as §3

For experiment [12], the target named is T7, enriched paired helical filament tau …. As to the kind of experiment: cell-based or functional assay.
For experiment [13], the target named is T1, iPHF. As to the kind of experiment: follow up selectivity analysis, iPHF over wild-type tau; method not stated.
Experiment [14] deals with Tau191-214 phospho-peptide (pS199/pT205) (human, phosphoserine at S199 and phosphothreonine at T205 of tau (peptide positions 9, 15); SCBio-4PEG label). As to the kind of experiment: one point ELISA.
Text: as §3

Experiment [15] concerns the target T2, Tau191-214 phospho-peptide (pS199). As to the kind of experiment: one point ELISA.
Text: as §3

For experiment [16], the target named is T8, pS199-old (SCBio-4PEG-Peptide, Tau191-214) (human, phosphoserine at S199 of tau by the row label; SCBio-4PEG label).
T8 construct: The suffix -old is not explained
As to the kind of experiment: one point ELISA.
Text: as §3

In experiment [17] the target is Tau191-214 phospho-peptide (pS199/pS202) (human, phosphoserine at S199 and S202 of tau (peptide positions 9, 12); SCBio-4PEG label). As to the kind of experiment: one point ELISA.
Text: as §3

Residue numbers refer to the chain shown, from its start. Where no end group is shown, it is not given here. [ ]: non-standard residue; d: D form. pT = C[C@@H](OP(=O)(O)O)[C@H](N)C(=O)O

T1 sequence (P10636 other isoform, or with tags, fused parts or gaps limits assumed): as above
T6 sequence (P10636 other isoform, or with tags, fused parts or gaps limits assumed): as above

B1: VY020 (antibody, V domains shown)
VH: EVQLVESGGGLVQPGGSLRLSCAASGFTFSSYSMNWVRQAPGKGLEWISYISSSNSTIKYADSVKGRFTISRDNAKNSLYLQMNSLRDEDTAVYYCARRSLGDYWGQGTLVIVSS
VL: EIVLTQSPATLSLSPGERATLSCRASQSVSSYLAWYLQKPGQAPRLLIYDVSNRATGIPARFSGSGSGTDFTLTISRLEPEDFAVYYCQQRRNWPYTFGQGTKLEIK
Turning to B1, binding in [1] was characterised by a dissociation constant (Kd) of 2.6 nM. Moreover, the binding result in experiment [2], in [3] and in [4] was “no binding” throughout.

B2: VY014 (antibody, V domains shown)
VH: EVQLVESGGGLVQPGGSLRLSCAASGFTFNNYDMHWVRQAAGKGLEWVSTIGAAGDTYYPGSVKGRFIISRENAKNSLYLQMNSLRAGDTAVYYCARAGETLEGATIGYYYGMDVWGQGTTVTVSS
VL: DILMTQSPLSLPVTPGEPASISCRSSQSLLHSNGYNYLDWYLQKPGQSPQLLIYLGSNRASGVPDRFSGSGSGTDFTLKFSRVEAEDVGLYYCMQALQIPLTFGGGTKVEIK
Regarding B2, the Kd in experiment [1] was determined as 5.3 nM. In experiment [5], the binding result was “binds”. For the same molecule, the EC50 turned out to be 0.04 nM in [6] and 6.23 nM in experiment [7].

B3: VY011 (antibody, V domains shown)
VH: QVQLQESGPGLVKPSETLSLTCTVSGGSISNYYWTWIRQPAGKGLEWIGRVYTSGSANYNPSLKSRVTMSVDTSKNQFSLTLSSVTAADTAVYYCARDRGLYYWGQGTLVTVSS
VL: DIVMTQTPLSSLVTLGQPASISCRSSQSLVHSDGNTYLSWLQQRPGQPPRLLIYKISKRFFGVPDRFSGSGAGTDFTLKINRVEAEDVGIYYCMQATQFPLTFGGGTKVEIK
notes: also called VY0I1; VY0111 (misprints in the text)
With B3, the values for the Kd in experiment [1], in experiment [3] and in experiment [9] were 2 nM, 0.0089 nM and 0.238 nM, respectively. Further, the “selectivity ePHF:WT” value in experiment [8] is over 137 fold. Also, the “OD (450 nm)” value in [10] and in experiment [11] was 0.06 OD450 throughout. Besides, the binding result in experiment [4] was “no binding”. Besides, the “Average IC50 (nM) for inhibiting tau aggregation after immunodepletion of ePHF (tau RD Biosensor cells)” value in experiment [12] is 18.1 nM. The “selectivity iPHF:WT” value in experiment [13] was over 108 fold. In experiment [7], this molecule displayed an EC50 of 0.03 nM.

B4: VY003 (antibody, V domains shown)
VH: EVQMVESGGGLVQPGGSLTLSCAASGFTFSSYRMNWVRQAPGKGLEWVSYISSSRSAIYYADSVKGRFTISRDNAKNSLYLQMNSLRDEDTAVYYCATLGIGYWGQGTLVTVSS
VL: B3 VL with L12P, K58N, F61S, N81T, A96V, L101R, G105Q, K112R
For the molecule B4, the Kd in experiment [1] was determined as 4.6 nM; in [3], 0.0124 nM. Besides, the “OD (450 nm)” value in experiment [10] was determined as 0.06 OD450; in [14], 0.119 OD450; in experiment [15] it was 0.065 OD450; in experiment [16], 0.062 OD450; in [11] it was 0.065 OD450; in [17], 0.082 OD450. Moreover, the EC50 in [7] was 0.06 nM.

By Kd is commonly meant a measure of binding affinity in units of concentration. Read a low Kd as higher affinity. A word on the EC50: it is the concentration giving half of the maximal effect. Higher therefore signals weaker potency.
